Data taken from patent publication US20090233317.

Key:
[1] = tested on: hsGRIM1 (human Global Repressor Involved in Myogenic differentiation), full length aa 1-749
[2] = tested on: recombinantly expressed GRIM1 aa 3-147

Substance: HAT domain of p300 (bacterially expressed)
- acetylation of GRIM1 [1]: detection of direct acetylation of GRIM1 (aa3-147 and of full-length GRIM1) by the HAT domain of p300
- acetylation of GRIM1 [2]: detection of direct acetylation of GRIM1 (aa3-147 and of full-length GRIM1) by the HAT domain of p300
